Patent US20230235059A1 (SORRENTO THERAPEUTICS, published 2023)
Residue numbers refer to the chain shown, from its start.

Tests used:
[1] = target: T1, Recombinant mouse PD-1-His (Sino Biological catalog #50124-M08H) (mouse, UniProt Q02242 25-167); test: SPR (BIACORE), antibody captured on anti-human Fc, PD-1-His as analyte
T1 construct: Bought protein; also called mouse PD-1 antigen; not shown: His tag
T1 sequence: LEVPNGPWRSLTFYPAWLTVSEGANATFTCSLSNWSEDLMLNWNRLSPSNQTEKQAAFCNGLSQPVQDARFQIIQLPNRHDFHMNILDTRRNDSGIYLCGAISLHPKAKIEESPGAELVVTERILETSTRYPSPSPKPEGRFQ
Procedure: (§1) Binding kinetics of anti-PD1 antibodies with PD-1 proteins from different species was measured using surface plasmon resonance (SPR). […] The PD-1 proteins from human (catalog #10377-H08H-B), cynomolgus monkey (catalog #90311-C08H), rhesus monkey (catalog #90305-K08H), and mouse (catalog #50124-M08H) were obtained from Sino Biological. Anti-human fragment crystallizable region (Fc region) antibody was immobilized on a CMS sensor chip to approximately 8,000 RU using standard N-hydroxysuccinimide/N-Ethyl-N′-(3-dimethylaminopropyl) carbodiimide hydrochloride (NHS/EDC) coupling methodology. […] Recombinant human, cyno, rhesus and mouse PD-1-His were serially diluted in a running buffer of 0.01 M HEPES pH 7.4, 0.15 M NaCl, 3 mM EDTA, 0.05% v/v Surfactant P20 (HBS-EP+). All measurements were conducted in HBS-EP+ buffer with a flow rate of 30 μL/minute. A 1:1 (Langmuir) binding model was used to fit the data. All BIACORE assays were performed at room temperature.

[2] = target: T2, Recombinant cynomolgus monkey PD-1-His (Sino Biological catalog #90311-C08H) (cynomolgus monkey, UniProt Q15116 25-167 (human entry)); test: as above
T2 construct: Bought protein; also called cyno PD-1-His; cynomolgus monkey PD-1 antigen; not shown: His tag
T2 chain: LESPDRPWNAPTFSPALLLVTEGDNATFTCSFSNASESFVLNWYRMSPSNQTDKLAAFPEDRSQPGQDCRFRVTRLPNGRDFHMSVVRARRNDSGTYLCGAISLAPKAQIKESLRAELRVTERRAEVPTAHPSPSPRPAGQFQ
Procedure: as §1

[3] = target: T3, Recombinant rhesus monkey PD-1-His (Sino Biological catalog #90305-K08H) (rhesus monkey); test: as above
T3 construct: Bought protein; also called rhesus PD-1-His; rhesus monkey PD-1 antigen; not shown: His tag
T3 chain: T2 chain with A10P, Q67R, R75Q
Procedure: as §1

[4] = target: PD-1 in the Promega PD1/PD-L1 blockade reporter bioassay (Cat. No. J1250) (human, UniProt Q15116 25-288); test: cell-based or functional assay
PD-1 in the Promega PD1/PD-L1 blockade reporter bioassay (Cat. No. J1250), sequence (Q15116 25-288 limits assumed): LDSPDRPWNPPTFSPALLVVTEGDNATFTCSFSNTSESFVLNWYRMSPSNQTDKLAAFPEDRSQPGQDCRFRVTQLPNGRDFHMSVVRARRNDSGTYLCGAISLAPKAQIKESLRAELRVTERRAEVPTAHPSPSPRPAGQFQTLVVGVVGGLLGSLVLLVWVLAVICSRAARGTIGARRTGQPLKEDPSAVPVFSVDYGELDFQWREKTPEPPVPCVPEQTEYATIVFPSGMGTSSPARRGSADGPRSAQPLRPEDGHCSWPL

B1: HPD-BB9 (antibody, V domains shown)
VH: QVQLVQSGAEVKKPGASVKVSCKASGFRLTTNGISWVRQAPGQGLEWMGWISAGGGPTNYAQKLQGRVTMTTDTSTSTAYMELRSLRSDDTAVYYCAKGLYGTKDAWGQGTLVTVSS
VL: QSVLTQPPSVSEVPGQRVTISCSGGGSNIGSNAVNWYQHFPGKAPKLLIYYNDLLPSGVSDRFSASKSGTSASLAISGLRSEDEADYYCAAWDDNLSAYVFATGTKVTVL
notes: also called HDP-BB9; anti-PD1 clone HPD-BB9
What does the source list for B1?
binding result [1]: binds; binding result [2]: binds; binding result [3]: binds; EC50 of fold induction of Relative Light Units (RLU), PD1/PD-L1 blockade reporter bioassay [4]: 0.493 µg/mL
